Data reported in patent US20150344570A1 (published 2015).

T1: FcγRIIa R extracellular domain with C-terminal His tag (human, UniProt P12318 34-217)
T1 construct: extracellular domain; also called FcgRIIa R; 2aR; not shown: His tag at the C terminus
T1 sequence (looked up): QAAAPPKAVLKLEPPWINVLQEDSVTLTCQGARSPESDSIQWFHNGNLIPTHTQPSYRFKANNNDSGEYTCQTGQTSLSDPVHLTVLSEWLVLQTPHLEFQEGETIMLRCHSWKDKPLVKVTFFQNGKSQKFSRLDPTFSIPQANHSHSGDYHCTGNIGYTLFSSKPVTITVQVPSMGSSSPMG

B1: GpH7-A5/GpH7-B3 variant S337_02A/GpL16-k0 (antibody, human IgG1, kappa)
heavy 1: not shown
heavy 2: not shown
light: DIVMTQSPLSLPVTPGEPASISCQASESLVHSNRNTYLHWYLQKPGQSPQLLIYKVSNRFSGVPDRFSGSGSGTDFTLKISRVEAEDVGVYYCSQNTHVPPTFGQGTKVEIERTVAAPSVFIFPPSDEQLKSGTASVVCLLNNFYPREAKVQWKVDNALQSGNSQESVTEQDSKDSTYSLSSTLTLSKADYEKHKVYACEVTHQGLSSPVTKSFNRGEC
notes: heterodimerized: alteration in one H chain only; also called He Ab S337_02A
B2: GpH7-A5/GpH7-B3 variant P331_15Y/GpL16-k0 (antibody, human IgG1, kappa)
heavy 1: not shown
heavy 2: not shown
light: B1 light
notes: heterodimerized: alteration in one H chain only; also called He Ab P331_15Y
B3: GpH7-A5/GpH7-B3 variant L235_20W/GpL16-k0 (antibody, human IgG1, kappa)
heavy 1: not shown
heavy 2: not shown
light: B1 light
notes: heterodimerized: alteration in one H chain only; also called He Ab L235_20W
B4: GpH7-A5/GpH7-B3 variant K326_07I/GpL16-k0 (antibody, human IgG1, kappa)
heavy 1: not shown
heavy 2: not shown
light: B1 light
notes: heterodimerized: alteration in one H chain only; also called He Ab K326_07I
B5: GpH7-A5/GpH7-B3 variant K334_04F/GpL16-k0 (antibody, human IgG1, kappa)
heavy 1: not shown
heavy 2: not shown
light: B1 light
notes: heterodimerized: alteration in one H chain only; also called He Ab K334_04F
B6: GpH7-A5/GpH7-B3 variant P238_04F/GpL16-k0 (antibody, human IgG1, kappa)
heavy 1: not shown
heavy 2: not shown
light: B1 light
notes: heterodimerized: alteration in one H chain only; also called He Ab P238_04F
B7: GpH7-A5/GpH7-B3 variant P238_03V/GpL16-k0 (antibody, human IgG1, kappa)
heavy 1: not shown
heavy 2: not shown
light: B1 light
notes: heterodimerized: alteration in one H chain only; also called He Ab P238_03V
B8: GpH7-A5/GpH7-B3 variant P271_08L/GpL16-k0 (antibody, human IgG1, kappa)
heavy 1: not shown
heavy 2: not shown
light: B1 light
notes: heterodimerized: alteration in one H chain only; also called He Ab P271_08L
B9: GpH7-A5/GpH7-B3 variant K334_10E/GpL16-k0 (antibody, human IgG1, kappa)
heavy 1: not shown
heavy 2: not shown
light: B1 light
notes: heterodimerized: alteration in one H chain only; also called He Ab K334_10E
B10: GpH7-A5/GpH7-B3 variant A327_10E/GpL16-k0 (antibody, human IgG1, kappa)
heavy 1: not shown
heavy 2: not shown
light: B1 light
notes: heterodimerized: alteration in one H chain only; also called He Ab A327_10E
B11: GpH7-A5/GpH7-B3 variant P331_02A/GpL16-k0 (antibody, human IgG1, kappa)
heavy 1: not shown
heavy 2: not shown
light: B1 light
notes: heterodimerized: alteration in one H chain only; also called He Ab P331_02A
B12: GpH7-A5/GpH7-B3 variant K326_03V/GpL16-k0 (antibody, human IgG1, kappa)
heavy 1: not shown
heavy 2: not shown
light: B1 light
notes: heterodimerized: alteration in one H chain only; also called He Ab K326_03V
B13: GpH7-A5/GpH7-B3 variant K326_04F/GpL16-k0 (antibody, human IgG1, kappa)
heavy 1: not shown
heavy 2: not shown
light: B1 light
notes: heterodimerized: alteration in one H chain only; also called He Ab K326_04F
B14: GpH7-A5/GpH7-B3 variant G237_04F/GpL16-k0 (antibody, human IgG1, kappa)
heavy 1: not shown
heavy 2: not shown
light: B1 light
notes: heterodimerized: alteration in one H chain only; also called He Ab G237_04F
B15: GpH7-A5/GpH7-B3 variant K326_20W/GpL16-k0 (antibody, human IgG1, kappa)
heavy 1: not shown
heavy 2: not shown
light: B1 light
notes: heterodimerized: alteration in one H chain only; also called He Ab K326_20W
B16: GpH7-A5/GpH7-B3 variant G237_20W/GpL16-k0 (antibody, human IgG1, kappa)
heavy 1: not shown
heavy 2: not shown
light: B1 light
notes: heterodimerized: alteration in one H chain only; also called He Ab G237_20W
B17: GpH7-A5/GpH7-B3 variant K326_08L/GpL16-k0 (antibody, human IgG1, kappa)
heavy 1: not shown
heavy 2: not shown
light: B1 light
notes: heterodimerized: alteration in one H chain only; also called He Ab K326_08L
B18: GpH7-A5/GpH7-B3 variant P331_16H/GpL16-k0 (antibody, human IgG1, kappa)
heavy 1: not shown
heavy 2: not shown
light: B1 light
notes: heterodimerized: alteration in one H chain only; also called He Ab P331_16H
B19: GpH7-A5/GpH7-B3 variant L328_13S/GpL16-k0 (antibody, human IgG1, kappa)
heavy 1: not shown
heavy 2: not shown
light: B1 light
notes: heterodimerized: alteration in one H chain only; also called He Ab L328_13S
B20: GpH7-A5/GpH7-B3 variant A327_09D/GpL16-k0 (antibody, human IgG1, kappa)
heavy 1: not shown
heavy 2: not shown
light: B1 light
notes: heterodimerized: alteration in one H chain only; also called He Ab A327_09D
B21: GpH7-A5/GpH7-B3 variant K334_05P/GpL16-k0 (antibody, human IgG1, kappa)
heavy 1: not shown
heavy 2: not shown
light: B1 light
notes: heterodimerized: alteration in one H chain only; also called He Ab K334_05P
B22: GpH7-A5/GpH7-B3 variant H268_01G/GpL16-k0 (antibody, human IgG1, kappa)
heavy 1: not shown
heavy 2: not shown
light: B1 light
notes: heterodimerized: alteration in one H chain only; also called He Ab H268_01G
B23: GpH7-A5/GpH7-B3 variant A330_12R/GpL16-k0 (antibody, human IgG1, kappa)
heavy 1: not shown
heavy 2: not shown
light: B1 light
notes: heterodimerized: alteration in one H chain only; also called He Ab A330_12R
B24: GpH7-A5/GpH7-B3 variant P331_04F/GpL16-k0 (antibody, human IgG1, kappa)
heavy 1: not shown
heavy 2: not shown
light: B1 light
notes: heterodimerized: alteration in one H chain only; also called He Ab P331_04F
B25: GpH7-A5/GpH7-B3 variant K334_02A/GpL16-k0 (antibody, human IgG1, kappa)
heavy 1: not shown
heavy 2: not shown
light: B1 light
notes: heterodimerized: alteration in one H chain only; also called He Ab K334_02A
B26: GpH7-A5/GpH7-B3 variant L328_14T/GpL16-k0 (antibody, human IgG1, kappa)
heavy 1: not shown
heavy 2: not shown
light: B1 light
notes: heterodimerized: alteration in one H chain only; also called He Ab L328_14T
B27: GpH7-A5/GpH7-B3 variant K334_08L/GpL16-k0 (antibody, human IgG1, kappa)
heavy 1: not shown
heavy 2: not shown
light: B1 light
notes: heterodimerized: alteration in one H chain only; also called He Ab K334_08L

These binders were tested against T1, FcγRIIa R extracellular domain with … (assay: SPR (Biacore), relative FcγRIIa R binding, GpH7-A5/GpH7-B3/GpL16-k0 = 100).

He/Con_2aR | Binder
105 % of control | B1
112 % of control | B2
131 % of control | B3
147 % of control | B4
110 % of control | B5
174 % of control | B6
120 % of control | B7
104 % of control | B8
106 % of control | B9
110 % of control | B10
106 % of control | B11
141 % of control | B12
135 % of control | B13
126 % of control | B14
131 % of control | B15
138 % of control | B16
137 % of control | B17
114 % of control | B18
117 % of control | B19
124 % of control | B20
103 % of control | B21
124 % of control | B22
104 % of control | B23
111 % of control | B24
105 % of control | B25
119 % of control | B26
106 % of control | B27
